One molecule from patent US10077295B2, “Glycoproteins having lipid mobilizing properties and therapeutic uses thereof” (Aston University, priority 2010, dated 2018) can be followed below.

Marks after values point to notes of the source that are not given here. Some results are limits rather than exact numbers.

For one data set, the target named is T1, human β2-AR (Homo sapiens, UniProt P07550).
T1 construct: host or cells: CHO-K1
The data set can be described thus: [125I] ZAG binding to crude membranes of CHO-K1 β2 cells. The settings on record: single freeze/thaw cycle. The procedure: [^125I] labelling of ZAG. One iodo bead that had been washed and dried was incubated with Na [^125I] (1 mCi per 100 μg protein) for 5 min in PBS, then ZAG (100 μg protein) was added and left for a further 15 min. The reaction was terminated by removal of the iodo bead, while free Na [^125I] was removed using a Sephadex G25 column eluted with 0.1MNaI. The [^125I] ZAG was concentrated against PBS using a Microcon microconcentrator with a filter cut-off of Mr 10,000. The specific activity of the [^125I] ZAG was 8 Cimg protein^1.
For binding studies cells were sonicated in 2 mM Tris HCl, pH7.5, containing […] and crude total membranes were pelleted by centrifugation (13,000 g; 15 min) at 4° C. Binding studies were carried out at 37° C. by incubating membranes (500 μg protein) in 0.4 ml 50 mM Tris HCl, pH 7.5, containing 0.5 mM MgCl2 for 60 min with various concentrations of [^125I] ZAG (3,000 to 15,000 cpm) in the absence or presence of 100 μM non-labelled ZAG. The membranes were then precipitated by centrifugation at 13000 g for 20 min, the supernatant was removed and the [^125I] bound to the pellet was quantitated using a Packard Corbra Model 5005 Auto-gamma counter. Binding was analysed using non-linear regression analysis (GraphPad Prism, Version 5.04). Specific binding was regarded as the amount of labelled ZAG displaced by non-radioactive ZAG.

The target in a further data set is T2, human β1-AR (Homo sapiens, UniProt P08588).
T2 construct: host or cells: CHO-K1
The data set can be described thus: Cyclic AMP production in CHO-K1 cells transfected with β1-AR. It is filed as cell-based. The conditions noted are these: any concentration. The procedure:
Binding Studies and Cyclic AMP Determination. CHO-K1 cells transfected with the human β1- and β2-AR obtained from University of Nottingham, UK, while CHOK1 cells transfected with the β3-AR were obtained from Astra Zeneca, Macclesfield, Cheshire, UK. Gene expression was under the control of hygromycin, together with a β-gal reporter construct, selected for resistance to G418. They were maintained in DMEM supplemented with 2 mM glutamine, hygromycin B ([…]), G418 ([…]), and 10% FCS, under an atmosphere of 10% CO2 in air. To determine the effect of agonists on cyclic AMP production, cells were grown in 24-well plates containing 1 ml of nutrient medium.

For another data set, the system named is male Wistar rats. Briefly: mature male Wistar rats, daily i.v. ZAG for 10 days: body weight, body composition, plasma metabolites. It is filed as in vivo, rat. The procedure:
Animal—Rats. Mature male Wistar rats (one year old from our own colony) weighing 540±82.5 g were housed individually and treated once daily i.v., with either ZAG in PBS (100 μl) (50 μg per 100 g body weight), or with PBS (100 μl) as a control. Both food and water intake and body weight were measured daily. Animals were given free access to food (Special Diet Services, Essex, UK) and water ad libitum. The animal experiment was carried out under the welfare conditions imposed by the British Home Office. After 10 days treatment the animals were terminated and the body composition determined. Animals were heated to 80-90° C. for 7 days until constant weight was achieved. The water content was then determined from the difference between the wet and dry weight. Lipids were extracted from the dry carcass using a sequence of chloroform:methanol (1:1), ethanol/acetone (1:1) and diethyl ether (120 ml of each) as described by Lundholm et al (14). The solvents were evaporated and the fat weighed. The non-fat carcass mass was calculated as the difference between the initial weight of the carcass and the weight of water and fat.
Serum Metabolite Determinations. Non-esterified fatty acids (NEFA) were determined using a Wako-ASC-ACOD kit (Wako Chemical GmbH, Neuss, Germany). Triglycerides were determined using a Triglyceride kit (Sigma Chemical Co., Poole, United Kingdom) and 3-hydroxybutyrate by a quantitative enzymatic determination kit (Sigma). Glucose was measured using a glucose analyser (Beckman, Irvine, Calif.) and glycerol was determined enzymatically using the method of Wieland as described in “Methods of Enzymatic Analysis” (Ed. Bergmeyer, H. U.) Vol. 3, pp1404-1409, published by Academic Press, London (1974).

For data set [1], the system named is β3-AR, β1-AR and β2-AR expression. Briefly: Western blot of β-AR expression in tissues of ob/ob mice after 5 days ZAG. It is filed as in vivo, mouse. The procedure:
Western Blot Analysis. WAT, BAT, heart and gastrocnemius muscle were thawed, washed in PBS, and lysed in Phosphsafe™ Extraction reagent for 5 min at room temperature, followed by sonication at 4° C. The supernatant formed by centrifugation at 18,000 g for 5 min at 4° C. was used for Western blotting. Cytosolic protein (5 μg for UCP's and 20 μg for β-AR) was resolved on 12% sodium dodecylsulphate polyacrylamide gels by electrophoresis at 180V for about 1 h and transferred on to 0.45 μm nitrocellulose membranes, which had been blocked with 5% (w/v) non-fat dried milk (Marvel) in Tris-buffered saline, pH 7.5, at 4° C. overnight. Prior to adding the primary antibodies membranes were washed for 15 min in 0.1% Tween 20-buffered saline. Both primary and secondary antibodies were used at a dilution of 1:1000. Incubation was for 1 h at room temperature and development was by ECL. Blots were scanned by a densitometer to quantify differences.
On the technique in general: A western blot detects proteins with antibodies after separation by electrophoresis.

T2 sequence (P08588 whole entry): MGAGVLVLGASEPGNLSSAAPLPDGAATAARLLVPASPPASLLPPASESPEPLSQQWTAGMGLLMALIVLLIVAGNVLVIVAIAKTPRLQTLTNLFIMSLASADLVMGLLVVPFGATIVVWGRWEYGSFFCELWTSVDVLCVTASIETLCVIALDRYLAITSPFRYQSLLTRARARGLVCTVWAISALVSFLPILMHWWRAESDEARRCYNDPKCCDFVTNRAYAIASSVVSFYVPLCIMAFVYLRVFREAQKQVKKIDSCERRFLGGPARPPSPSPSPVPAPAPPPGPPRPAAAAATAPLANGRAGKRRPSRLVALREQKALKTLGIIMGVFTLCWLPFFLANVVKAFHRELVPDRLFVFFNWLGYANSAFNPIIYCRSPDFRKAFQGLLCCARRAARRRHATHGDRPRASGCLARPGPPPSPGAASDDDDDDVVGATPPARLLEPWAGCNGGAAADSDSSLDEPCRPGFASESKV

B1: ZAG: recombinant full length human zinc-α2-glycoprotein (SEQ ID NO: 1) secreted by transfected HEK293F cells; lipid mobilizing factor (protein, listed as Homo sapiens)
chain: QENQDGRYSLTYIYTGLSKHVEDVPAFQALGSLNDLQFFRYNSKDRKSQPMGLWRQVEGMEDWKEDSQLQKAREDMETLKDIVEYYNDSNGSHVLQGRFGCEIENNRSSGAFWKYYYDGKDYIEFNKEIPAWVPFDPAAQITKQKWEAEPVYVQRAKAYLEEECPATLRKYLKYSKNILDRQDPPSVVVTSHQAPGEKKKLKCLAYDFYPGKIDVHWTRAGQVQEPELRGDVLHNGNGTYQSWVVVAVPPQDTAPYSCHVQHSSLAQPLVVPWEAS
In the case of B1, the “effect of freeze-thawing on binding to β2-AR” value in the data set with human β2-AR is “eliminated binding”. The “cyclic AMP production” value with human β1-AR is “no increase in cyclic AMP”. Further, the “time to significant elevation in body temperature” value in the data set with male Wistar rats (after the first administration) is given as not above 24 h. In addition, in the data set with male Wistar rats (male rats, after 10 days), the Final weight is given as 525 ± 1 g and the Weight change is -5 ± 1 g. In the data set with male Wistar rats (rats), the “elevation in body temperature” value worked out at 0.4 °C. In the data set on male Wistar rats (rats treated for 10 days), the “Glucose (plasma)” value is 16.2 ± 2.1^c mmol/l, the “Glycerol (plasma)” value is 450 ± 51^c umol/l, the “NEFA (plasma)” value is listed as 0.26 ± 0.06^b mEq/l and the “Trigylcerides (plasma)” value was 1.1 ± 0.09^a mmol/l. In the data set on male Wistar rats (rats, 10 days), the “decrease in plasma levels of NEFA” value was 55%; the “increase in plasma glycerol concentration” value stood at 50%; the “reduction of plasma levels of glucose and triglycerides” value is 36-37%. Further, in the data set on male Wistar rats (rats, after 10 days, 50 μg/100 g b.w. i.v. daily), the “decrease in body weight” value came out at 5 g. Further, in data set [1], the “expression of β1-AR or β2-AR in gastrocnemius muscle or WAT” value is “no change in expression”, the “increase in β3-AR expression in BAT” value was found to be 89%, the “increase in β3-AR expression in WAT” value was 85% and the “β3-AR expression in gastrocnemius muscle” value was “two-fold increase”.
